Patent US8969027B2, “Protease assay” (priority 2008, dated 2015)
No end group written: not given here.

Key:
[1] = Fluorescence quantum yield of TCPP; type: physicochemical; conditions: untethered, non-metalated TCPP
Description: The emission spectra of the nanoplatform assembly (1×10^−5 M) in PBS in the presence of about 1×10^−8 M urokinase is depicted in FIG. 4, at 0 (A), 2 (B), 4 (C), and 6 minutes (D). […] The reason for the observed non-linear behavior can be found in the high fluorescence quantum yield of the untethered, non-metalated TCPP. We estimated Φ=0.082, which is approximately eight times higher than in the tethered state, when the large porphyrin-concentration in the sphere around the Fe/Fe3O4-nanoparticle leads to increase FRET and, consequently, radiation-less deactivation of the excited states.

[2] = molecular target: T1, urokinase (Homo sapiens, UniProt P00749); assay: FRET-based sensor emission spectra in the presence of urokinase; type: biochemical; conditions: assembly 1×10^−5 M in PBS, about 1×10^−8 M urokinase, 0-6 minutes
T1 construct: purchased Innovative Research, Inc., Novi, Mich
Description: For the FRET-Based Sensor, five Zn-TCPP porphyrins were attached to one central stealth-protected Fe/Fe3O4 nanoparticle, and then a non-metalated TCPP porphyrin was attached to the central nanoparticle, using the procedure described below.
To prepare the stealth-protected Fe/Fe3O4-nanoparticles, 35 mg of dopamine-tetraethylene glycol ligand were dissolved in 5 ml THF. Next, 11.0 mg of Fe/Fe3O4-nanoparticles were added and sonicated at room temperature for 1 hour. […] The solid was then collected with a magnet and solvent was decanted carefully. The solid was washed with THF (3×3 ml). After drying under vacuum for 2 hours, 10.0 mg of stealth-protected nanoparticle product was obtained.
The oligopeptide linker was then attached to the metalated porphyrin. […]
The emission spectra of the nanoplatform assembly (1×10^−5 M) in PBS in the presence of about 1×10^−8 M urokinase is depicted in FIG. 4, at 0 (A), 2 (B), 4 (C), and 6 minutes (D). […] The reason for the observed non-linear behavior can be found in the high fluorescence quantum yield of the untethered, non-metalated TCPP. […]
In FIG. 5, the ratios of the integrals of the fluorescence bands shown at λ1=607 nm, λ2=654 nm, and λ3=718 nm are plotted versus the mol percent of released TCPP (as measured by HPLC using an Agilent workstation (HP 1050) equipped with an optical detection system). […]

[3] = molecular target: T1, urokinase; assay: Fluorescence/phosphorescence assay of uPA activity with chromophore-chromophore assembly; type: biochemical; conditions: excitation of pyrene at 280 nm, 37° C., about 1×10^−8 mol urokinase, 0-15 minutes
Description: In this example, fluorescence/phosphorescence assays were used to measure activity of uPA. A chromophore-chromophore assembly was prepared using the peptide sequence SRSRSRSRSRSGRSAGGGC (SEQ ID NO: 18) (GenScript) as a spacer between a pyrene fluorophore and a coumarin acceptor. All chemicals and solvents were purchased from Fisher/Acros (Pittsburgh, Pa.), unless otherwise noted. The assembly was prepared by dissolving 0.00010 mol of coumarin in THF at room temperature. Next, 0.00012 mol of 1-ethyl-3-(3-dimethyllaminopropyl)carbodiimide (EDC) were added as solid under argon-atmosphere and allowed to react for 5 hours. Then, the oligopeptide linkage was attached to the coumarin by adding to the reaction 0.00010 mol of the oligopeptide dissolved in 1 ml bidest. (double purified) water, followed by stirring at room temperature for 24 hours under argon atmosphere. Next, 0.0020 mol of mercaptopyrene was added as a solid to the solution, and completely dissolved within 5 minutes. The solution was continuously stirred under ambient conditions for another 24 hours. […]
The spectral shift from the assay is depicted in FIG. 3. The changes in the emission spectra were measured using a spectrofluorometer (ISA-SPEX, Fluoromax-2; ISA, Inc., Edison, N.J.). Upon photoexcitation of the pyrene at 280 nm, FRET occurs, which causes the attached coumarin to emit most of the phosphorescence/luminescence. […]

[4] = molecular target: T1, urokinase; assay: UV/Vis-absorption spectroscopy measurement of uPA activity with nanoparticle-nanoparticle assembly; type: biochemical; conditions: PBS, 37° C.
Description: In this procedure, UV/Vis-Absorption spectroscopy was used to measure the activity of uPA. All chemicals and solvents were purchased from Fisher/Acros (Pittsburgh, Pa.), unless otherwise noted. A nanoparticle-nanoparticle assembly was prepared using citrate-stabilized gold nanoparticles (Sigma-Aldrich, St. Louis, Mo.) with a 10 nm diameter and an oligopeptide with the following sequence: CGGGSGRSAGGGC (SEQ ID NO: 35) (GenScript, Piscataway, N.J.). First, 1 mg of the nanoparticles was suspended in 25 ml of tetrahydrofuran (THF) containing 1.0×10^−3 M of glycine. The microheterogeneous solution was heated under pressure (100 psi) and argon-atmosphere to 200° C. for 5 hours. The reaction was carried out using a High-Pressure Reactor (available from Parr Instruments, Moline, Ill.). Digestive ripening decreased the Au-nanoparticle diameter to 4-5 nm. The nanoparticles were then removed from the solution by ultracentrifugation at 30,000 rpm and then resuspended in THF. The procedure was repeated 10 times to remove all non-bonded glycine.
Next, 0.1 mg of the oligopeptide was added to the Au-nanoparticles in 1.0 ml of anhydrous THF, followed by stirring for 24 hours. The oligopeptide and nanoparticles were precipitated by centrifugation at 30,000 rpm and then resuspended in THF. This procedure was repeated 10 times. The linked Au—Au nanoparticle assemblies were then dissolved in phosphate buffer (PBS; pH=7.02), precipitated by centrifugation at 20,000 rpm and resuspended again in PBS.
The reported absorption coefficient at the maximum absorption of the plasmon is ε=7.66×10^9 M^−1 cm^−1. This absorption coefficient was used to estimate the concentration of the Au—Au nanoparticles at […].
The Au—Au nanoparticles in PBS solution were then added to a quartz cuvette (˜3.0 mL). The solution was heated to 37° C. for 15 minutes. Next, 1×10^−8 mol of urokinase in 0.050 ml of PBS (Innovative Research, Inc., Novi, Mich.) was added to the cuvette. […]

O=C(O)c1ccc(-c2c3nc(c(-c4ccc(C(=O)O)cc4)c4ccc([nH]4)c(-c4ccc(C(=O)O)cc4)c4nc(c(-c5ccc(C(=O)O)cc5)c5ccc2[nH]5)C=C4)C=C3)cc1 [TCPP, tetracarboxy-phenyl-porphyrin]
fluorescence quantum yield Φ [1]: 0.082

FRET-Based Sensor: five Zn-TCPP porphyrins and a non-metalated TCPP attached to one stealth-protected Fe/Fe3O4 nanoparticle via CGGGSGRSAGGGC linkers (cysteine pairing not given here; also: links Zn-TCPP porphyrins and TCPP to Fe/Fe3O4 nanoparticle, attachment points not given here)
fluorescence band at λ1=607 nm in the presence of urokinase [2]: distinct decrease

chromophore-chromophore assembly: pyrene fluorophore and coumarin acceptor linked by peptide SRSRSRSRSRSGRSAGGGC (SEQ ID NO: 18) (also: pyrene fluorophore and coumarin acceptor attached)
coumarin emission (FRET) after adding urokinase [3]: decreases with time

coupled pair of gold nanoparticles: 4-5 nm gold nanoparticles linked by oligopeptide CGGGSGRSAGGGC (SEQ ID NO: 35) (cysteine pairing not given here; also: attached to gold nanoparticles)
maximum of the gold plasmon absorption after urokinase cleavage ([4]; 1×10^−8 mol urokinase): 517 nm | time for the shift of the plasmon absorption maximum ([4]; 1×10^−8 mol urokinase): ≤ 180 s | maximum of the gold plasmon absorption before urokinase cleavage ([4]; before adding urokinase): 523 nm
